Source: US8236764

System: Human FV isolated from plasma
Sequence (chain, as listed by the source): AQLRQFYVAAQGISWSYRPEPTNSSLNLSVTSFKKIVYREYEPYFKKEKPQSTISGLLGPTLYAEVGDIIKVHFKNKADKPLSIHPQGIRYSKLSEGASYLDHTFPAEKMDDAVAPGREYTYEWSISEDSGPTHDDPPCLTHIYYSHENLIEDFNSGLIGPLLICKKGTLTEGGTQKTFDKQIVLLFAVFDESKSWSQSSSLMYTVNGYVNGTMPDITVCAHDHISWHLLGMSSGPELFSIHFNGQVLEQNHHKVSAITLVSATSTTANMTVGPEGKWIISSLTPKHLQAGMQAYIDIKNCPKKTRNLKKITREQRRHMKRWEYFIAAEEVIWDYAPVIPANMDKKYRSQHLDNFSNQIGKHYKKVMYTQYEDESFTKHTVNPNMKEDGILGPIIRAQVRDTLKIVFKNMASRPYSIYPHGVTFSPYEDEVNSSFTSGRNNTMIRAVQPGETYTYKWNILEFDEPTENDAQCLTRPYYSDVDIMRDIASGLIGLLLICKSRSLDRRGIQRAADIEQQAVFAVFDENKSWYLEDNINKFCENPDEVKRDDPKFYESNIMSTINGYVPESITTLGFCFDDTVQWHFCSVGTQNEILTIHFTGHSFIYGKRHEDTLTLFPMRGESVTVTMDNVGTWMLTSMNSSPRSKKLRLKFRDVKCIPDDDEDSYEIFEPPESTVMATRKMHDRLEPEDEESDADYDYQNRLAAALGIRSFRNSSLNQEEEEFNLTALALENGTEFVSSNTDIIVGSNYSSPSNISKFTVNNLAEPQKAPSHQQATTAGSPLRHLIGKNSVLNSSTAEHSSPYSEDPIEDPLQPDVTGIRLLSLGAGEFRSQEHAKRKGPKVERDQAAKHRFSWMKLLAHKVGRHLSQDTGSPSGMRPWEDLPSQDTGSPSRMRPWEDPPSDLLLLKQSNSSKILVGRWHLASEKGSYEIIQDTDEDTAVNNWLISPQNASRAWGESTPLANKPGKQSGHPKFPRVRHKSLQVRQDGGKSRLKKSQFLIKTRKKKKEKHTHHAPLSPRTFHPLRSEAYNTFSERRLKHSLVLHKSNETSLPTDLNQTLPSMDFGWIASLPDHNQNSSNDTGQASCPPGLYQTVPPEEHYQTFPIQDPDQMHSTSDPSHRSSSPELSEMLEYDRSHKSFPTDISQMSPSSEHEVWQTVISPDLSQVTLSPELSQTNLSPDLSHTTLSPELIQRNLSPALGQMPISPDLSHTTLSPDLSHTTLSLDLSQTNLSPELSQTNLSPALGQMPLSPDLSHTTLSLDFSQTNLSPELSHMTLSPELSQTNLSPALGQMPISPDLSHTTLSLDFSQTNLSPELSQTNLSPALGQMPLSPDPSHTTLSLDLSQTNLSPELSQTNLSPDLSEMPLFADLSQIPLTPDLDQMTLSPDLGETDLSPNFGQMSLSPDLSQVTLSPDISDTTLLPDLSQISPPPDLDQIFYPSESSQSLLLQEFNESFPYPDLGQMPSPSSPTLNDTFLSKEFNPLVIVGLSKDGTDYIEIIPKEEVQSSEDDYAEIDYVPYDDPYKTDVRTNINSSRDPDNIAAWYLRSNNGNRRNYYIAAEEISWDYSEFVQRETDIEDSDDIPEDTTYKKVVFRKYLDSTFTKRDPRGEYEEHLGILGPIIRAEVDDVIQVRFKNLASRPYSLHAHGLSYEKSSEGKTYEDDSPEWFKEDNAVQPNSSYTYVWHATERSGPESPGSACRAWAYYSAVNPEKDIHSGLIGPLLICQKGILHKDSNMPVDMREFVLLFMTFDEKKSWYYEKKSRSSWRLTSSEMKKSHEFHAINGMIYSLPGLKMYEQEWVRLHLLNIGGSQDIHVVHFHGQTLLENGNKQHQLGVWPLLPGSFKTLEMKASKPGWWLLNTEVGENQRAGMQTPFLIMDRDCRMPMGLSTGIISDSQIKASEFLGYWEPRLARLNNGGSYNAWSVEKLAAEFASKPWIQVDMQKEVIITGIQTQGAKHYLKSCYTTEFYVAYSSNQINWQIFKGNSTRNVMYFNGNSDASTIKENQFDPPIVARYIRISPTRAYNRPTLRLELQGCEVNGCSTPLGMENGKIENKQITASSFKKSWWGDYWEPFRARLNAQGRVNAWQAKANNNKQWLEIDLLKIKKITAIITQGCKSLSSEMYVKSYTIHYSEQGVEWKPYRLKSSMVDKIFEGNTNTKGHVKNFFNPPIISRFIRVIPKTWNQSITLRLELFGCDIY

Substance | activation of FV (cofactor activity by PT-based assay using FV-deficient plasma; cleavage by SDS-PAGE)
human thrombin | murine thrombin activates human FV in a similar fashion to human thrombin
murine thrombin | murine thrombin activates human FV in a similar fashion to human thrombin
